From publication PMC10397247

Columns and labels:
[1] = biological target: T1, 4H3638-bA; assay: two-hybrid library CCNG1;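 further: natural log of median RNA to DNA barcode read ratio; higher means stronger binding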
T1 chain: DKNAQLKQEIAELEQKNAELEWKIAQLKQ

[2] = biological target: T2, 4H3628-bA; assay: two-hybrid library CCNG1;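 further: natural log of median RNA to DNA barcode read ratio; higher means stronger binding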
T2 chain: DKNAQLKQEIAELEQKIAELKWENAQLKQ

[3] = biological target: T3, 4H3926-bA; assay: two-hybrid library CCNG1;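 further: natural log of median RNA to DNA barcode read ratio; higher means stronger binding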
T3 chain: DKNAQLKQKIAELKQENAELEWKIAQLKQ

[4] = biological target: T4, 4H626-bA; assay: two-hybrid library CCNG1;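 further: natural log of median RNA to DNA barcode read ratio; higher means stronger binding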
T4 chain: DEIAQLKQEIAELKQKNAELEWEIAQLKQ

[5] = biological target: T5, 4H3613-bA; assay: two-hybrid library CCNG1
T5 chain: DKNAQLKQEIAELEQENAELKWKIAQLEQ

[6] = biological target: T6, 4H3462-bA; assay: two-hybrid library CCNG1
T6 chain: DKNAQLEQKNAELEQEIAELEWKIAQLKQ

[7] = biological target: T7, 4H906-bA; assay: two-hybrid library CCNG1
T7 chain: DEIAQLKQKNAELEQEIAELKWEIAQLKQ

[8] = biological target: T8, 4H591-bA; assay: two-hybrid library CCNG1
T8 chain: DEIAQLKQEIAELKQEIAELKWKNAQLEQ

[9] = biological target: T9, 4H3497-bA; assay: two-hybrid library CCNG1
T9 chain: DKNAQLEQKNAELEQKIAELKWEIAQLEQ

[10] = biological target: T10, 4H3939-AA; assay: two-hybrid library CCmax; conditions: mean of both orientations
T10 chain: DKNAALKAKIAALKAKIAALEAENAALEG

[11] = biological target: T11, 4H428-AA; assay: two-hybrid library CCmax; conditions: mean of both orientations
T11 chain: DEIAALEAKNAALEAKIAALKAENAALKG

[12] = biological target: T12, 4H497-AA; assay: two-hybrid library CCmax; conditions: mean of both orientations
T12 chain: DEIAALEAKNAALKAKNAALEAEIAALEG

[13] = biological target: T13, 4H391-AA; assay: two-hybrid library CCmax; conditions: mean of both orientations
T13 chain: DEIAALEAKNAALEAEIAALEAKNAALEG

[14] = biological target: T14, 4H2948-AA; assay: two-hybrid library CCmax; conditions: mean of both orientations
T14 chain: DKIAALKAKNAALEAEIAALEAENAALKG

[15] = biological target: T15, 4H3920-AA; assay: two-hybrid library CCmax; conditions: mean of both orientations
T15 chain: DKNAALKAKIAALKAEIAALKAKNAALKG

[16] = biological target: T16, 4H3121-AA; assay: two-hybrid library CCmax; conditions: mean of both orientations
T16 chain: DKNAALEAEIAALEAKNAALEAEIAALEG

[17] = biological target: T17, 4H3029-AA; assay: two-hybrid library CCmax; conditions: mean of both orientations
T17 chain: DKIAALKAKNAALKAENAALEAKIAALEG

[18] = biological target: T18, 4H3628-AA; assay: two-hybrid library CCmax; conditions: mean of both orientations
T18 chain: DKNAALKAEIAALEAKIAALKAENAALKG

[19] = biological target: T19, 4H3591-AA; assay: two-hybrid library CCmax; conditions: mean of both orientations
T19 chain: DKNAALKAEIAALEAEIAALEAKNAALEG

[20] = biological target: T20, 4H3102-AA; assay: two-hybrid library CCmax; conditions: mean of both orientations
T20 chain: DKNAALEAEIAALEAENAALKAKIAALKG

[21] = biological target: T21, 4H3666-AA; assay: two-hybrid library CCmax; conditions: mean of both orientations
T21 chain: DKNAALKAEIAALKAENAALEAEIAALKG

[22] = biological target: T22, 4H2283-AA; assay: two-hybrid library CCmax; conditions: mean of both orientations
T22 chain: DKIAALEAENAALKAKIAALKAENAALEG

[23] = biological target: T23, 4H3446-AA; assay: two-hybrid library CCmax; conditions: mean of both orientations
T23 chain: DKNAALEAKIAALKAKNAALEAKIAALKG

[24] = biological target: T24, 4H2248-AA; assay: two-hybrid library CCmax
T24 chain: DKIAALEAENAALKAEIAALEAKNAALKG

[25] = biological target: T25, 4H3417-AA; assay: two-hybrid library CCmax; conditions: mean of both orientations
T25 chain: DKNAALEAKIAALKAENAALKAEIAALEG

[26] = biological target: T26, 4H656-AA; assay: two-hybrid library CCmax; conditions: mean of both orientations
T26 chain: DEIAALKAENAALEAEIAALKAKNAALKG

[27] = biological target: T27, 4H971-AA; assay: two-hybrid library CCmax; conditions: mean of both orientations
T27 chain: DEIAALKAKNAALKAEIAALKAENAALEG

[28] = biological target: T28, 4H478-AA; assay: two-hybrid library CCmax; conditions: mean of both orientations
T28 chain: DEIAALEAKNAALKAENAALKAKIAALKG

[29] = biological target: T29, 4H2742-AA; assay: two-hybrid library CCmax; conditions: mean of both orientations
T29 chain: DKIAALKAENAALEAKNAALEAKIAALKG

[30] = biological target: T30, 4H2713-AA; assay: two-hybrid library CCmax; conditions: mean of both orientations
T30 chain: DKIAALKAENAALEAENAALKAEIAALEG

[31] = biological target: T31, 4H3709-AA; assay: two-hybrid library CCmax; conditions: mean of both orientations
T31 chain: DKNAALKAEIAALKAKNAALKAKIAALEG

[32] = biological target: T32, 4H2991-AA; assay: two-hybrid library CCmax; conditions: mean of both orientations
T32 chain: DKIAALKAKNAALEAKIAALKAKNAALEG

[33] = biological target: T33, 4H3066-AA; assay: two-hybrid library CCmax; conditions: mean of both orientations
T33 chain: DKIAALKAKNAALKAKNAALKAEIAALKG

[34] = biological target: T34, 4H675-AA; assay: two-hybrid library CCmax; conditions: mean of both orientations
T34 chain: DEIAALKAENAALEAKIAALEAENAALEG

[35] = biological target: T35, 4H3298-bA; assay: two-hybrid library CCNG1
T35 chain: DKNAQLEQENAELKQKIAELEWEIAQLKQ

[36] = biological target: T36, 4H492-bA; assay: two-hybrid library CCNG1
T36 chain: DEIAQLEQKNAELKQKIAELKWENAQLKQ

[37] = biological target: T37, 4H348-bA; assay: two-hybrid library CCNG1
T37 chain: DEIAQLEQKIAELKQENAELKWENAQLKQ

[38] = biological target: T38, 4H477-bA; assay: two-hybrid library CCNG1
T38 chain: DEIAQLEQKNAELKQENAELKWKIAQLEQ

[39] = biological target: T39, 4H3277-bA; assay: two-hybrid library CCNG1
T39 chain: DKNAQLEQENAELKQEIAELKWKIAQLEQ

[40] = biological target: T40, 4H40-bA; assay: two-hybrid library CCNG1
T40 chain: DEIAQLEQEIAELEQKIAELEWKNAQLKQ

[41] = biological target: T41, 4H741-bA; assay: two-hybrid library CCNG1
T41 chain: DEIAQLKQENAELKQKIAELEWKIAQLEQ

[42] = biological target: T42, 4H3057-bN; assay: two-hybrid library CCNG1
T42 chain: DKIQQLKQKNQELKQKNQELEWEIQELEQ

[43] = biological target: T43, 4H477-bN; assay: two-hybrid library CCNG1
T43 chain: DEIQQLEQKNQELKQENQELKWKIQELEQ

[44] = biological target: T44, 4H3277-bN; assay: two-hybrid library CCNG1
T44 chain: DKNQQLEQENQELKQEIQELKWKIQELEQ

[45] = biological target: T45, 4H348-bN; assay: two-hybrid library CCNG1
T45 chain: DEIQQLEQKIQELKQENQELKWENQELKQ

[46] = biological target: T46, 4H492-bN; assay: two-hybrid library CCNG1
T46 chain: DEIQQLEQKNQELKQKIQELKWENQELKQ

[47] = biological target: T47, 4H2717-bN; assay: two-hybrid library CCNG1
T47 chain: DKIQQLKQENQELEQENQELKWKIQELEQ

[48] = biological target: T48, 4H40-bN; assay: two-hybrid library CCNG1
T48 chain: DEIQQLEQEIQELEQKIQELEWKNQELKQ

[49] = biological target: T49, 4H2839-bN; assay: two-hybrid library CCNG1
T49 chain: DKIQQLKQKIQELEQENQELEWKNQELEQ

[50] = biological target: T50, 4H319-bN; assay: two-hybrid library CCNG1
T50 chain: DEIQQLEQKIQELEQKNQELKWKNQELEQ

[51] = biological target: T51, 4H741-bN; assay: two-hybrid library CCNG1
T51 chain: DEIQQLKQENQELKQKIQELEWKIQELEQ

[52] = biological target: T52, 4H2915-bN; assay: two-hybrid library CCNG1
T52 chain: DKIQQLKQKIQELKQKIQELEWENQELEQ

[53] = biological target: T53, O5; assay: two-hybrid library CCNG1
T53 chain: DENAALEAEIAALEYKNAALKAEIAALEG

[54] = biological target: T54, O8; assay: two-hybrid library CCNG1
T54 chain: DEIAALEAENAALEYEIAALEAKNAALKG

[55] = biological target: T55, O4; assay: two-hybrid library CCNG1
T55 chain: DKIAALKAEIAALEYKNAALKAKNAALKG

[56] = biological target: T56, O7; assay: two-hybrid library CCNG1
T56 chain: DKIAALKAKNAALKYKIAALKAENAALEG

[57] = biological target: T57, O6; assay: two-hybrid library CCNG1
T57 chain: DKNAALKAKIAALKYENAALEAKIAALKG

[58] = biological target: T58, O9; assay: two-hybrid library CCNG1
T58 chain: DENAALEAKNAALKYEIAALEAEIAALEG

## DKNAQLEQKNAELEQEIAELEWKIAQLKQ [4H3462-bA]
[1]
  interaction score: -1.05
[2]
  interaction score: -1.42
[3]
  interaction score: 0.717
[4]
  interaction score: -0.693
[5]
  interaction score: -0.827
[6]
  interaction score: 0.257
[7]
  interaction score: -1.46
[8]
  interaction score: 0.153
[9]
  interaction score: 0.917

## DKIAALEAENAALKAEIAALEAKNAALKG [4H2248-AA]
[10]
  interaction score: -1.4
[11]
  interaction score: -0.478
[12]
  interaction score: -2.18
[13]
  interaction score: -1.16
[14]
  interaction score: -0.353
[15]
  interaction score: -1.51
[16]
  interaction score: -1.69
[17]
  interaction score: -1.79
[18]
  interaction score: -1.59
[19]
  interaction score: -1.39
[20]
  interaction score: 2.22
[21]
  interaction score: -0.505
[22]
  interaction score: 2.34
[23]
  interaction score: 0.189
[24]
  interaction score: 2.16
[25]
  interaction score: 0.548
[26]
  interaction score: -0.26
[27]
  interaction score: 1.05
[28]
  interaction score: 0.536
[29]
  interaction score: -1.88
[30]
  interaction score: -1.2
[31]
  interaction score: -1.23
[32]
  interaction score: -0.183
[33]
  interaction score: -1.25
[34]
  interaction score: 0.827

## DKNAQLEQENAELKQKIAELEWEIAQLKQ [4H3298-bA]
[2]
  interaction score: -0.0439
[3]
  interaction score: -0.651
[4]
  interaction score: -1.12
[5]
  interaction score: 0.681
[6]
  interaction score: 0.667
[7]
  interaction score: -0.638
[8]
  interaction score: -0.699
[35]
  interaction score: 1.02
[9]
  interaction score: -0.263

## DKNAQLEQENAELKQEIAELKWKIAQLEQ [4H3277-bA]
[36]
  interaction score: -0.379
[2]
  interaction score: -0.955
[3]
  interaction score: -0.539
[4]
  interaction score: -0.429
[5]
  interaction score: -0.514
[37]
  interaction score: -0.856
[6]
  interaction score: -0.372
[7]
  interaction score: -0.838
[38]
  interaction score: -0.644
[8]
  interaction score: -1.19
[39]
  interaction score: 1.38
[35]
  interaction score: -0.215
[9]
  interaction score: -0.961
[40]
  interaction score: -1.08
[41]
  interaction score: -1.81

## DKIQQLKQENQELEQENQELKWKIQELEQ [4H2717-bN]
[42]
  interaction score: -1.99
[43]
  interaction score: 1.4
[44]
  interaction score: -1.11
[45]
  interaction score: -0.289
[46]
  interaction score: -0.854
[47]
  interaction score: 0.00236
[48]
  interaction score: -1.61
[49]
  interaction score: -0.648
[50]
  interaction score: -0.684
[51]
  interaction score: -2.58
[52]
  interaction score: -0.6

## DKIAALKAEIAALEYKNAALKAKNAALKG [O4]
[53]
  interaction score: -2.52
[54]
  interaction score: -2.07
[55]
  interaction score: -2.15
[56]
  interaction score: -2.43
[57]
  interaction score: -2.27
[58]
  interaction score: -1.88
